Results taken from patent US20250270301A1 (GEN2 NEUROSCIENCE, published 2025).
Like-named read-outs stand apart in the source and are kept apart here.

Tests used:
[1] = target: monomeric P301S 2N4R tau, pHrodo-labelled (human, UniProt P10636 1-758, pHrodo Red maleimide label); assay: cell-based or functional assay
[2] = target: aggregated (oligomeric) P301S 2N4R tau, pHrodo-labelled (human, UniProt P10636 1-758, pHrodo Red maleimide label); assay: cell-based or functional assay
[3] = target: T1, full length recombinant human 2N4R tau (human, UniProt P10636 1-758); assay: SPR SCK, IgG on Protein A, tau in flow
T1 construct: bought from rPeptide; pHrodo Red maleimide-labelled where it stands in uptake assays; also called tau1-441; full length tau
T1 sequence (P10636 other isoform, or with tags, fused parts or gaps limits assumed): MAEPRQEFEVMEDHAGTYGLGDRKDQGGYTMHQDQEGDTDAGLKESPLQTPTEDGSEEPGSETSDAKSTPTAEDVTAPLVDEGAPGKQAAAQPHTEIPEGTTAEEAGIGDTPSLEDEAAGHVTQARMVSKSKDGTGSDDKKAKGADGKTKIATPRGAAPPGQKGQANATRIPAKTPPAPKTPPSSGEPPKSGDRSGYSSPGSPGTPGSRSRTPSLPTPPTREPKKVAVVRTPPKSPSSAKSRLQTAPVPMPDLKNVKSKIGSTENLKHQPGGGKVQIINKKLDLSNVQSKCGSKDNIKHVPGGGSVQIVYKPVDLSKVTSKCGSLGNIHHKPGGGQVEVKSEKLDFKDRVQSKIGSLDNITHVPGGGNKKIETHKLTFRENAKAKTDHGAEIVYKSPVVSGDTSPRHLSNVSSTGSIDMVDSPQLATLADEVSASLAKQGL

[4] = target: T1, full length recombinant human 2N4R tau; assay: SPR MCK, IgG on Protein A, tau in flow at 100 µL/min
Bovine serum albumin [5] = target: T2, Bovine serum albumin (bovine, UniProt P02769 25-607); assay: ELISA on 1% BSA, HEK supernatant, anti-human IgG-HRP, n=1
T2 construct: also called BSA
T2 sequence (P02769 25-607 limits assumed): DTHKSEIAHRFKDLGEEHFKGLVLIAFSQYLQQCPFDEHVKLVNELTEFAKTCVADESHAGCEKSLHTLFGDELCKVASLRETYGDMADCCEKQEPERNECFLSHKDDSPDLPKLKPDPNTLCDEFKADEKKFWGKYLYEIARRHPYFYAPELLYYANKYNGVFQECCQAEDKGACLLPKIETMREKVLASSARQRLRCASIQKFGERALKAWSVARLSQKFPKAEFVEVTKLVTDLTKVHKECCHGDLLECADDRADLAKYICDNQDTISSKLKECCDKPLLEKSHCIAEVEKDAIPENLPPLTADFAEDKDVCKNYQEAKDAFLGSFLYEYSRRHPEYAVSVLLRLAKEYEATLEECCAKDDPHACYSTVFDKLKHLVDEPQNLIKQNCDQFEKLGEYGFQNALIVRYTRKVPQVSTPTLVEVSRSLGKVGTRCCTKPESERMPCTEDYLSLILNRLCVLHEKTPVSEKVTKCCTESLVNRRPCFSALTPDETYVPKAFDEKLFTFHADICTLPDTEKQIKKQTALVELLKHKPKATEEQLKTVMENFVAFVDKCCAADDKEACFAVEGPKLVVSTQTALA

[6] = target: T1, full length recombinant human 2N4R tau; assay: SPR MCK, IgG on Protein A, tau in flow at 100 µL/min; on the border of mass transport limitation
Bovine serum albumin [7] = target: T2, Bovine serum albumin; assay: ELISA on 1% BSA, HEK supernatant, anti-human IgG-HRP, n=1; remark: listed apart in the source
How it was run: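 Wells coated with antigen, blocked 1 h RT in 5% milk/TBS; HEK293 transient-transfection supernatants applied at 1:100 in 1% BSA/TBS for 1 h RT. Bound hIgG1 detected with anti-human IgG-HRP (1:2000), TMB 15 min, acid stop, OD450; single replicate.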

[8] = target: T1, full length recombinant human 2N4R tau; assay: ELISA on 2N4R tau (100 ng/well), HEK supernatant, anti-human IgG-HRP, n=1
Method: FIG. 7. A panel of humanised anti-tau IgG bind to full length recombinant 2N4R tau in an ELISA format. Supernatants from HEK cells transiently transfected with each IgG clone were tested at 1:100 for binding to full length recombinant 2N4R tau (solid bars). […] Binding of anti-tau hIgG1 was detected using an HRP-conjugated anti-human secondary antibody and data are shown from a representative experiment (n=1 replicate).
Antigen was removed from wells and the plates were then blocked for 1 hour at RT with 5% dried milk in 1×TBS. Blocking solution was removed, HEK293 cell supernatant (1:100 in 1% BSA/1×TBS) was added to relevant wells, and plates were incubated for 1 hour at RT with gentle shaking. Plates were then washed four times with TBS/0.1% Tween (TBST). Goat anti-human IgG-HRP antibody (Thermo Fisher Scientific, Waltham, MA, USA), diluted 1:2000 in 5% milk/TBS, was added to each well and plates were incubated for 1 hour at RT with gentle shaking before being washed four times with TBST. 3,3′,5,5′-tetramethylbenzidine (TMB) ELISA solution was added to each well and plates were incubated for 15 mins at RT. An equal volume of 1 M sulfuric acid was added to each well and OD was measured at 450 nm.

aggregated (oligomeric) P301S 2N4R tau, pHrodo-labelled, sequence (P10636 other isoform, or with tags, fused parts or gaps P301S P301S): as the sequence (P10636 other isoform, or with tags, fused parts or gaps limits assumed) above, with P301S counted along it
monomeric P301S 2N4R tau, pHrodo-labelled, sequence (P10636 other isoform, or with tags, fused parts or gaps P301S P301S): as the sequence (P10636 other isoform, or with tags, fused parts or gaps limits assumed) above, with P301S counted along it

Binder	inhibition of monomeric tau uptake into human astrocytes [1]	inhibition of monomeric tau uptake into human iPSC-derived neurons [1]	inhibition of aggregated tau uptake into human astrocytes [2]	inhibition of aggregated tau uptake into human iPSC-derived neurons [2]	Fold change (KD, to pVH/pVL) [3]	Kd [3]	koff [3]	kon [3]	Fold improvement (KD, to pVH/pVL) [4]	koff [4]	kon [4]	binding result (Bovine serum albumin [5])	Kd [6]	binding result (Bovine serum albumin [7])	binding result [8]
#44_VH4VK4_H06/pVL (antibody, V domains shown, also called Clone VH4_H06; #44_VH4_H06) VH: QVQLQESGPGLVKPSETLSLTCTVSGIDLSSYAMAWVRQAPGKGLEWIGVIDAAGHTFYASWVKGRFTISKDTSKTTVDLQMTSLTAEDTATYFCARDSGTFDPWGQGTLVTVSS VL: DIQMTQSPSSLSASVGDRVTITCQASQSVYDNYLAWYQQKPGQPPKLLIHAASNLASGVPSRFSGSGSGTEFTLTISSLQPDDFATYYCLGEFSCTTTDCNVFGGGTKVEIK	35.1%	71%	39.1%	55%	5.77	1.14 nM	0.00444 s⁻¹	3.9e+06 M⁻¹ s⁻¹	5	0.00524 s⁻¹	3.43e+06 M⁻¹ s⁻¹	no binding (tested: 30 ng/ml (legend 1:100))	1.53 nM	–	–
#44 VH6VK1 humanised hIgG1 (antibody, V domains shown, also called VH6Vκ1) VH: QVQLQESGPGLVKPSETLSLTCTVSGIDLSSYAMSWVRQAPGKGLEWVSCIDRRGGTFYASWVKGRFTISRDNSKNTLDLQMTSLTAEDTATYYCARDSGAFDPWGQGTLVTVSS VL: QIVMTQSPSSLSASVGDRVTITCQASQSVYDNYLAWYQQKPGQPPKLLIHAASNLASRVPSRFKGSGSGTEFTLTISSLQCDDFATYYCLGEFSCTTTDCNVFGGGTEVVIK	–	–	–	–	–	–	–	–	–	–	–	–	–	no binding (tested: supernatant 1:100)	no binding (tested: supernatant 1:100)
